Experimental findings from article PMC2018632 (Nucleic Acids Research, 2007) are described below.

This assay addresses T1, Escherichia coli uracil-DNA glycosylase (Escherichia coli, UniProt P12295 1-229).
T1 sequence: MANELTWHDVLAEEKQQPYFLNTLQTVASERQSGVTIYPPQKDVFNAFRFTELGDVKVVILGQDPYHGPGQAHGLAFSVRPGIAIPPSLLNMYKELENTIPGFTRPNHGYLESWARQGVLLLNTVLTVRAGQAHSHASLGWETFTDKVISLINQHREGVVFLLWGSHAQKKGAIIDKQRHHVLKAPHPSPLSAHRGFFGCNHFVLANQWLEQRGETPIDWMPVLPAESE
The assay can be described thus: native gel or EMSA. A general note: A gel shift assay detects complexes by their altered migration in electrophoresis.

B1: Ugi from the Bacillus subtilis phage PBS2 (natural protein)
chain: MTNLSDIIEKETGKQLVIQESILMLPEEVEEVIGNKPESDILVHTAYDESTDENVMLLTSDAPEYKPWALVIQDSNGENKIKML
As for B1, the binding result was “binds”.
